Measured values taken from the supplement of paper PMC10126150.
± gives the standard deviation of the averaged measurements.

Test system: ATP
Experiment: switch fluorescence ratio, 500 uM ATP over buffer (Cy3 cluster intensity, sum of 5 cycles each) (fold (ratio)); higher = stronger signal-on switching upon ATP binding; sequences stand for … in TCGTCGGCAGCGTCAGATGTGTATAAGAGACAGTTTTTTTTTTTTTTTTTTTTTTTTT…TC
Conditions: aptamer strand: ATP DNA aptamer (quencher-CACCTGGGGGAGTATTGCGGAGGAAGG + anchor), 100 nM annealed; ATP concentration: 500 uM
Outline: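 Exposure to 500 uM ATP lasted 15 min at 22 °C before imaging, and a selection-buffer image was taken beforehand, for Cy3-labelled switching-strand clusters on a modified Illumina MiSeq flow-cell annealed to 100 nM quencher-labelled ATP aptamer. Five buffer/ATP cycles were run with NaOH stripping and re-annealing between them. The fluorescence ratio per cluster is summed target-cycle over summed buffer-cycle Cy3 intensity, averaged per switch-domain sequence. Clusters outside 100-1000 RFU were excluded.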

| Sequence | switch fluorescence ratio |
| --- | --- |
| TGCGATGACT | 1.45 ± 0.65 |
| TGCGATTCTG | 0.978 ± 0.032 |
| TGCGCAGCGG | 1.005 ± 0.0094 |
| TGCGCTTCTA | 0.98114 ± 0.00055 |
| TGCGGAAGGC | 1.11 ± 0.013 |
| TGCGGAGGTT | 1.019 ± 0.0037 |
| TGCGGCGAGG | 1.016 ± 2e-05 |
| TGCGGGGCAG | 1.04 ± 0.072 |
| TGCGGGGGCG | 0.992 ± 0.038 |
| TGCGGGGGTG | 1.05 ± 0.018 |
| TGCGGGGTGG | 1.12 ± 0.072 |
| TGCGGGTGGT | 1.035 ± 0.0014 |
| TGCGGTAGAA | 1.01 ± 0.024 |
| TGCGTATGAA | 0.9796 ± 0.0097 |
| TGCGTCCAAG | 1.02 ± 0.029 |
| TGCGTCGGTG | 1.03 ± 0.049 |
| TGCGTCTGAT | 1.001 ± 0.0082 |
| TGCGTGAAAT | 0.9765 ± 0.0044 |
| TGCGTGGGGA | 1.04 ± 0.0057 |
| TGCTAACGTG | 0.977 ± 0.0057 |
| TGCTAGGAG | 0.995 ± 0.043 |
| TGCTAGTACC | 1.054 ± 0.0036 |
| TGCTATCATT | 1.08 ± 0.12 |
| TGCTCATAGC | 1.01 ± 0.021 |
| TGCTCCAGTC | 1.094 ± 0.0067 |

| Sequence | switch fluorescence ratio |
| --- | --- |
| TGCTCCGGAG | 1.018 ± 0.006 |
| TGCTCCTGTA | 1 ± 0.024 |
| TGCTCGGCGT | 0.99846 ± 0.00041 |
| TGCTCTAGGA | 1.001 ± 0.0042 |
| TGCTGAAGAT | 1.003 ± 0.0067 |
| TGCTGAGTAG | 0.9785 ± 0.0036 |
| TGCTGCAGTT | 0.982 ± 0.055 |
| TGCTGGAGGA | 1.038 ± 0.006 |
| TGCTGGATTT | 0.991 ± 0.016 |
| TGCTGGCATA | 1.18 ± 0.29 |
| TGCTGGCCTG | 1.01 ± 0.019 |
| TGCTGGGGAT | 1.009 ± 0.0015 |
| TGCTGGTCTC | 1 ± 0.015 |
| TGCTGGTCTG | 1.02 ± 0.047 |
| TGCTGTATTC | 0.967 ± 0.041 |
| TGCTGTTCTC | 0.995 ± 0.018 |
| TGCTTAGTC | 1.01 ± 0.022 |
| TGCTTCATAA | 1.01 ± 0.048 |
| TGCTTGAGTC | 1.009 ± 0.0027 |
| TGCTTGGGGC | 0.99 ± 0.059 |
| TGCTTGTCTC | 1 ± 0.013 |
| TGCTTTAGCG | 1.0155 ± 0.00011 |
| TGCTTTCATG | 1.01 ± 0.027 |
| TGCTTTCTTC | 1.15 ± 0.31 |
| TGCTTTGTGT | 0.978 ± 0.025 |

| Sequence | switch fluorescence ratio |
| --- | --- |
| TGCTTTTAGG | 0.996 ± 0.017 |
| TGCTTTTCTT | 0.996 ± 0.018 |
| TGCTTTTTA | 0.971 ± 0.051 |
| TGGAAAAGCT | 1.06 ± 0.034 |
| TGGAAAAGGT | 1.0134 ± 0.00089 |
| TGGAAAATTC | 1.019 ± 0.0078 |
| TGGAAAGTAC | 1.28 ± 0.095 |
| TGGAAGATGG | 1.01 ± 0.03 |
| TGGAAGGGCT | 1.052 ± 0.0058 |
| TGGAAGGTTA | 1.01 ± 0.025 |
| TGGAAGTCGG | 0.984 ± 0.022 |
| TGGACACTGC | 1.02 ± 0.011 |
| TGGACAGACA | 1.111 ± 0.0046 |
| TGGACGAATA | 1.39 ± 0.29 |
| TGGACGAGAG | 1.01 ± 0.019 |
| TGGACGGAAG | 0.984 ± 0.018 |
| TGGAGAAGTA | 1.09 ± 0.2 |
| TGGAGCCTTT | 1.1 ± 0.18 |
| TGGAGCGGGA | 1 ± 0.022 |
| TGGAGGTCGC | 1.01 ± 0.049 |
| TGGAGGTCTA | 1 ± 0.018 |
| TGGAGGTTAG | 1.02 ± 0.034 |
| TGGAGGTTAT | 0.9935 ± 0.0081 |
| TGGAGTAAAA | 1.03 ± 0.053 |
| TGGAGTATTT | 0.9525 ± 0.005 |

| Sequence | switch fluorescence ratio |
| --- | --- |
| TGGAGTGGGT | 1.01 ± 0.011 |
| TGGAGTTAGG | 0.995 ± 0.013 |
| TGGAGTTGGT | 0.987 ± 0.047 |
| TGGATATTTT | 0.993 ± 0.044 |
| TGGATCAATT | 1.01 ± 0.011 |
| TGGATCAGTG | 0.993 ± 0.046 |
| TGGATGAAGA | 1.025 ± 0.0078 |
| TGGATGGCGT | 1.101 ± 0.0046 |
| TGGATGTCAT | 1.07 ± 0.059 |
| TGGATTAAGG | 1.03 ± 0.033 |
| TGGATTGGGC | 0.973 ± 0.038 |
| TGGATTGTTT | 0.994 ± 0.03 |
| TGGCAAAGTT | 0.985 ± 0.013 |
| TGGCAATGAA | 1.28 ± 0.35 |
| TGGCACAGAG | 1 ± 0.022 |
| TGGCAGCAGT | 1.09 ± 0.019 |
| TGGCAGTTTT | 1.02 ± 0.013 |
| TGGCATCTGT | 0.972 ± 0.03 |
| TGGCATTTCC | 1.18 ± 0.11 |
| TGGCCCTTGG | 1 ± 0.054 |
| TGGCCGATGG | 0.986 ± 0.052 |
| TGGCCGGGAT | 0.996 ± 0.021 |
| TGGCCGTGGC | 1.03 ± 0.05 |
| TGGCCTATCC | 1.17 ± 0.04 |
| TGGCGAATTA | 0.978 ± 0.026 |
